We go through 11 molecules from patent US20150086555A1.

Where two headings read alike, the source gives them in different places.

Details in all cases: remark: other sources report otherwise
Assay [1] addresses recombinant homotrimeric HA A/common magpie/Hong Kong/5052/07 H5N1 (Influenza A virus A/common magpie/Hong Kong/5052/2007(H5N1)). Nature of the assay: protein microarray, purified IgG, trimeric HA.
Assay [2] addresses T1, recombinant soluble homotrimeric HA of A/common magpie/Hong Kong/5052/07 (H5N1) (Influenza A virus A/common magpie/Hong Kong/5052/2007(H5N1)). Briefly: trimeric HA microarray, transfection supernatant set 3.
Assay [3] concerns the target T1, recombinant soluble homotrimeric HA of …. Nature of the assay: HA microarray, BCC supernatant.
Assay [4] has the same target. Briefly: trimeric HA microarray, transfection supernatant set 5.
The target is the same in assay [5]. Briefly: trimeric HA microarray, transfection supernatant set 2.
The target is the same in assay [6].
Assay [7] has the same target. Nature of the assay: trimeric HA microarray, transfection supernatant set 4.
The target is the same in assay [8]. Nature of the assay: trimeric HA microarray, transfection supernatant set 1.
The target in assay [9] is recombinant soluble homotrimeric HA, A/common magpie/Hong Kong/5052/07 H5N1 (Influenza A virus A/common magpie/Hong Kong/5052/2007(H5N1)). Briefly: microarray, transfection SN IgG, trimeric HA.
In assay [10] the target is T1, recombinant soluble homotrimeric HA of …. Briefly: HA microarray, control antibody.

B1: TCN-531 (5091_H13) (antibody, V domains shown)
VH: EVQLVESGGDLVQPGRSLKLSCTGSGFTFGDYGVTWVRQAPGKGLEWVGFIRTRPWGGTADTAASVKGRFTISRDDSKSLAYLQMNSLKTEDTAVYYCCRDAPPNVEVASMTNWYFDLWGRGTLVTVSS
VL: DIQLTQSPSSLSASVGDRVTITCRASQGILNCLAWYQQKPGKVPNLLMYAASTLQSGVPSRFSGSGFGTDFTLTISSLQPEDVATYYCQTYGGVSTFGGGTKVEIR
As to B1, the results for the Trimeric HA Binding: RLU in assay [1] and in assay [2] were 674 RLU and 37 RLU, respectively.

B2: TCN-538 (3206_O17) (antibody, V domains shown)
VH: QITLKESGPTLVKPTQTLTLTCVFSGFSLSITGVRVGWIRQPPGKALEWLALISWDDEKHYSPSLQSRLTITKDTSKNQVVLTMTNLDPVDTATYYCARSTDRGHVLRYFGWMLPGDAFDVWGQGTMVTVSS
VL: DIVMTQSPDFLPVSLGERATINCKSSQRVLYSSNNKNYLAWYQLKPGQPPKLIIYWASTRESGVPDRFSGSGSGTEFTLTISSLQAEDVAVYYCQQYYSRPYTFGQGTKLEIK
Consider B2, for which the Trimeric HA Binding: RLU in [3] turned out to be 18700 RLU; in assay [1], 5140 RLU; in assay [4], 3140 RLU.

B3: TCN-563 (5237_B21) (antibody, V domains shown)
VH: QVQLAQSGAEVKRPGSSVKVSCTASGGIFRKNAISWVRQAPGQGLEWMGGIIAVFNTANYAQKFQGRVKITADESGNTAYMELSSLRSDDTAVYYCASHPKYFYGSGSYPDFWGQGTLVTVSS
VL: QSALTQPRSVSGSPGQSVTISCTGSSSDVGASNSVSWYQQHPGKAPKLVIYDVTERPSGVPHRFSGSKSGNTASLTVSGLQPEDEADYFCCAYGGKYLVVFGGGTKVTVL
Turning to B3, the Trimeric HA Binding: RLU in [3] was found to be 27500 RLU; in assay [5], 52800 RLU; in assay [6] it was 20000 RLU.

B4: TCN-540 (5060_F05) (antibody, V domains shown)
VH: QVQLVQSGGGVVQPGRSLRLSCAASGFTFSSYAMHWVRQAPGKGLEWVAIISYDGNDQYYTDSVKGRFTISRDSSKVYLQMHRLRPEDTAVYYCAKEFETSGYFHGSFDYWGQGILVTVSS
VL: QSALTQPASVSGSPGQSITISCTGTSSDVGGYNYVSWYQQHPGKAPKLLIYEVTNWPSGVSNRFSGSKSGNTASLTISGLQAEDEADYYCSSYAGSSTWVFGGGTRVTVL
For B4, the Trimeric HA Binding: RLU in [3] stood at 113 RLU; in assay [1] it was 799 RLU; in assay [4] it was 1800 RLU.

B5: TCN-536 (5095_N01) (antibody, V domains shown)
VH: QVQLQQWGAGLLKPSETLSLTCAVYGGSFSVSGYYWSWIRQPPGRGLEWIGEISHGGSTNYNPSLKSRVTISVDTTKNQFSLRLSSVTAADTAVYYCARGTDPDTEVYCRVGNCAAFDYWGQGSLVTVSS
VL: EIILAQSPGTLSLSPGERATLSCRASQFVSTRSLAWYQQRPGQAPRLLIYGASSRATGIPDRFSGSGSGTDFTLTISRLEPEDFAVYYCQHYGYSPRYAFGQGSKVEIK
As for B5, the Trimeric HA Binding: RLU in assay [1] turned out to be 794 RLU; in assay [7], 27 RLU.

B6: TCN-564 (5256_A17b) (antibody, V domains shown)
VH: QVQLVQSGADVKKPGSSVTVSCKASGGSFSNYGINWVRQAPGQGLEWMGGIIPLINAPNYAPKFQGRVTITADMFSNIVSLQLTSLRTDDTAVYYCARRKMTTAIDYWGQGTLVTVSS
VL: QPVLSQPPSASASLGASVTLTCTLSSGFDNYQVAWYQQRPGKGPRFVMRVGNGGNVASKGDGIPDRFSVSGSGLNRYLTIKNIQEDDESDYYCGADHGSGNNFVSPYVFGGGTKLTVL
For B6, the Trimeric HA Binding: RLU in [6] is 20800 RLU.

B7: TCN-523 (5248_A17) (antibody, V domains shown)
VH: QVQLVQSGAEVKKPGSSVKVSCKASGGSFSNYAFSWVRQAPGQGLEWMGGTIPLLGTTNYAQKFQGRVTISADQFTSTAYMELGSLRSEDTAVYYCTRRKMTTAFDSWGQGTLVTVSS
VL: QPVLTQPPSASASLGASVTLTCTLSSAYSNYKVDWYQQRPGKGPRFVMRVGTGGIVGSKGDGIPDRFSVLGSGLNRYLTIKNIQEEDESDYHCGADHGSGSNFVSPYVFGGGTKLTVL
For the molecule B7, the Trimeric HA Binding: RLU in assay [3] is 45800 RLU; in [1], 20900 RLU; in assay [8] it was 6240 RLU; in [2], 640 RLU; in assay [5], 7210 RLU; in [7], 2130 RLU. In assay [9], the Trimeric HA Binding: RLU turned out to be 33900 RLU.

B8: TCN-504 (3251_K17) (antibody, V domains shown)
VH: QVQLQESGPGLVKPSETLSLTCAVSGVSISNIDFYWGWIRQPPGKGLEWIGNIYYTGITFYNPSLSSRVAISIDTSKNQFSLTLTSVTAADTAMYYCARHYGDSEAINDAFDIWGQGTMLTVSS
VL: EIVMTQSPATLSVSPGERATLSCRASQSVGNSLAWYQQRPGQAPRLLIYGASTRATGIPPRFSGSGSGTEFTLTISSLQTEDFAVYYCQQYINWRPLSFGGGTKVEIK
B8: the Trimeric HA Binding: RLU in [8] amounted to 29700 RLU; in assay [2] it was 17800 RLU; in [5] it was 16800 RLU; in assay [7], 8680 RLU; in assay [9], 37300 RLU; in assay [10], 17000 RLU.

B9: TCN-534 (5249_B02) (antibody, V domains shown)
VH: QVQLVQSGAEVKKPGSSVKVSCRESGGTFNGYTITWVRQAPGQGLEWMGGIIPMMGTVNYAQKLQGRVTITTDYFTKTAYMDLNNLRSEDTAMYYCVKIRYTGQQLLWGQGTLVTVSS
VL: DIQMTQSPSTLSASIGDRVTITCRASQSIASWLAWYQQKPGKAPKLLIYEAVNLESGVPSRFSGSGSGTDFTLTISSLQPDDFATYFCQHYGTISQTFGGGTKVEIK
Regarding B9, the Trimeric HA Binding: RLU in assay [3] was found to be 32500 RLU; in [1], 16500 RLU; in [7], 127 RLU.

B10: TCN-530 (5248_H10a) (antibody, V domains shown)
VH: QVQLVQSGAEVRKPGSSVKVSCKASGGPFMSYAIGWVRQAPGQGLEWMGGINPVFGRPHYAQKFQGRVTIATDDSTKTSYMELSSLTSEDTGMYYCASRYSRSSPGTFESWGQGTLVTVSS
VL: EIVMTQFPATLSVSPGERVTLSCRASQSVSNNLAWYQQKPGQPPRLLIYDASTRATGVPAKFSGTGSGTEFTLSISSLQSEDFAVYYCQQYHNWPPSYSFGLGTKLEIK
In the case of B10, the Trimeric HA Binding: RLU turned out to be 42500 RLU in assay [3], 10300 RLU in assay [1] and 5580 RLU in assay [2].

B11: TCN-535 (5246_P19) (antibody, V domains shown)
VH: QVQLVQSGSEVKKPGTSVKVSCTASGSVFTNYGISWVRQAPGQGLEWMGGIIPLFGAAKYAQKFQGRVTITADESTKTVYMELSRLTSKDTAIYFCAKAPRVYEYYFDQWGQGTPVTVSS
VL: EIVLTQSPGTLSLSPGERATLSCRASQSVSSSQLAWYQQKPGQAPRLIIYGASTRATGIPDRFSGSGSGTDFTLTIGRLEPEDFAVFFCQQYSTSPPTFGQGTKVDFK
Turning to B11, the Trimeric HA Binding: RLU came to 45900 RLU in assay [3], 20400 RLU in assay [1] and 477 RLU in [7].
